Numbering of substitutions follows the chain as printed. In names and notes the source's numbering stands.
B1: anti-BACE1 hIgG4 antibody, Fc modification T1-IgG4 (M252Y/T307Q/N434Y) (antibody, part only; not given: anti-BACE1 variable domains, not shown: another chain or arm of the molecule)
Fc: PAPEFLGGPSVFLFPPKPKDTLYISRTPEVTCVVVDVSQEDPEVQFNWYVDGVEVHNAKTKPREEQFNSTYRVVSVLQVLHQDWLNGKEYKCKVSNKGLPSSIEKTISKAKGQPREPQVYTLPPSQEEMTKNQVSLTCLVKGFYPSDIAVEWESNGQPENNYKTTPPVLDSDGSFFLYSRLTVDKSRWQEGNVFSCSVMHEALHYHYTQKSLSLSLGK
B2: anti-Abeta hIgG4 antibody, Fc modification Q95 (M252Y/T307Q/Q311A/N434Y) (antibody, part only; not given: anti-Abeta variable domains, not shown: another chain or arm of the molecule)
Fc: B1 Fc with Q82A
B3: anti-Abeta hIgG4 antibody, Fc modification T94 (M252Y/N286E/N434Y) (antibody, part only; not given: anti-Abeta variable domains, not shown: another chain or arm of the molecule)
Fc: B1 Fc with N57E, Q78T
B4: anti-Abeta hIgG4 antibody, Fc modification D1 (M252Y/N434Y) (antibody, part only; not given: Anti-Abeta variable domains, not shown: another chain or arm of the molecule)
Fc: B1 Fc with Q78T
B5: anti-BACE1 hIgG4 antibody, Fc modification Q95 (M252Y/T307Q/Q311A/N434Y) (antibody, part only; not given: Anti-BACE1 variable domains, not shown: another chain or arm of the molecule)
Fc: B1 Fc with Q82A
B6: anti-Abeta hIgG4 antibody, Fc modification T3 (M252Y/Q311I/N434Y) (antibody, part only; not given: anti-Abeta variable domains, not shown: another chain or arm of the molecule)
Fc: B1 Fc with Q78T, Q82I
B7: anti-Abeta hIgG4 antibody, Fc modification Q7 (M252Y/Q311A/N434Y/Y436I) (antibody, part only; not given: anti-Abeta variable domains, not shown: another chain or arm of the molecule)
Fc: B1 Fc with Q78T, Q82A, Y207I
B8: anti-BACE1 hIgG4 antibody, Fc modification T94 (M252Y/N286E/N434Y) (antibody, part only; not given: Anti-BACE1 variable domains, not shown: another chain or arm of the molecule)
Fc: B1 Fc with N57E, Q78T
B9: anti-BACE1 hIgG4 antibody, Fc modification T3 (M252Y/Q311I/N434Y) (antibody, part only; not given: Anti-BACE1 variable domains, not shown: another chain or arm of the molecule)
Fc: B1 Fc with Q78T, Q82I
B10: anti-Abeta hIgG4 antibody, Fc modification Q6 (M252Y/M428L/N434Y/Y436I) (antibody, part only; not given: anti-Abeta variable domains, not shown: another chain or arm of the molecule)
Fc: B1 Fc with Q78T, M199L, Y207I
B11: anti-BACE1 hIgG4 antibody, Fc modification Q6 (M252Y/M428L/N434Y/Y436I) (antibody, part only; not given: anti-BACE1 variable domains, not shown: another chain or arm of the molecule)
Fc: B1 Fc with Q78T, M199L, Y207I
B12: anti-Abeta hIgG4 antibody, Fc modification Q4 (M252Y/Q311I/M428L/N434Y) (antibody, part only; not given: Anti-Abeta variable domains, not shown: another chain or arm of the molecule)
Fc: B1 Fc with Q78T, Q82I, M199L
B13: anti-BACE1 hIgG4 antibody, Fc modification Q7 (M252Y/Q311A/N434Y/Y436I) (antibody, part only; not given: anti-BACE1 variable domains, not shown: another chain or arm of the molecule)
Fc: B1 Fc with Q78T, Q82A, Y207I

Each binder was assayed against human FcRn (FCGRT and beta-2 microglobulin) expressed on MDCK II cells (human) (UniProt P55899) (assay: cell-based or functional assay).

Transcytosis Normalized to WT (normalized to WT) | Binder
80 | B1

Each binder was assayed against human FcRn complex (FCGRT and beta-2 microglobulin), recombinant, purified (human) (UniProt P55899) (assay: SPR, protein L capture, pH 6, kinetic).

Kd | koff | kon | Binder
10.5 nM | 0.00897 s⁻¹ | 856000 M⁻¹ s⁻¹ | B1

The binders below were run against cyno FcRn (cynomolgus monkey) (UniProt Q8SPV9) (assay: affinity for cyno FcRn at 25 C, pH 6.0).
cyno FcRn (cynomolgus monkey), sequence (Q8SPV9 24-297 limits assumed, chain 1 of 2): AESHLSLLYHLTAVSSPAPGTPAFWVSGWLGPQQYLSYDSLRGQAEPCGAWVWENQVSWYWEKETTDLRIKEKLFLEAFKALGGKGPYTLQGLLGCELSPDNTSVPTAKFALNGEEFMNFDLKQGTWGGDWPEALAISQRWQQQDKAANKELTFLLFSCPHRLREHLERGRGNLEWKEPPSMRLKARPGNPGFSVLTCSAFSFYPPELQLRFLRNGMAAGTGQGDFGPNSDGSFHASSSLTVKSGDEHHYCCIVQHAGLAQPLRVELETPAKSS
cyno FcRn (cynomolgus monkey), sequence (Q8SPW0 21-119 limits assumed, chain 2 of 2, further chain): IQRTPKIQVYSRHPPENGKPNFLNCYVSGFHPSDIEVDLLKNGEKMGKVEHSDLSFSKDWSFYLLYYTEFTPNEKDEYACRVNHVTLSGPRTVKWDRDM

Kd | Binder
8.2 nM | B2
10.1 nM | B3
11.5 nM | B4

These binders were tested against cyno FcRn (cynomolgus monkey) (UniProt Q8SPV9) (assay: affinity for cyno FcRn at 25 C, pH 7.4).

Kd | Binder
215 nM | B2
369 nM | B3
571 nM | B4

What follows are binders tested against human FcRn complex (FCGRT and beta-2 microglobulin), recombinant, purified (human) (UniProt P55899) (assay: SPR, protein L capture, pH 7.4, steady state).

Kd | Binder
328 nM | B1

Each binder was assayed against human FcRn complex (FCGRT and beta-2 microglobulin), recombinant, purified (human) (UniProt P55899) (assay: SPR, anti-human Fab capture, pH 6, steady state).

Kd | Binder
5.9 nM | B5
9.2 nM | B6
7.4 nM | B7
7.04 nM | B8
7.4 nM | B9
6.5 nM | B2
8.8 nM | B3
13.1 nM | B4
8 nM | B10
6.3 nM | B11
9.2 nM | B12

Each binder was assayed against human FcRn complex (FCGRT and beta-2 microglobulin), recombinant, purified (human) (UniProt P55899) (assay: SPR, anti-human Fab capture, pH 7.4, steady state).

Kd | Binder
202 nM | B5
230 nM | B13
334 nM | B6
273 nM | B7
305 nM | B8
263 nM | B9
284 nM | B2
406 nM | B3
1020 nM | B4
285 nM | B10
215 nM | B11
486 nM | B12

From patent US20220033520A1
